One block for each molecule: values may come before it.
How the values were obtained:
[1] = target: zanidatamab (human); assay: SPR; zani captured on immobilised goat anti-human Fc (CM5, Biacore T200), HER2 ECD 3.75-60 nM flowed; single-cycle, 1:1 Langmuir fit; apparent; capture/MW 2.080156929 RU/kDa
[2] = target: zanidatamab precursor (human); assay: SPR; zani precursor captured on immobilised goat anti-human Fc (CM5, Biacore T200), HER2 ECD 3.75-60 nM flowed; single-cycle, 1:1 Langmuir fit; apparent; capture/MW 0.312928952 RU/kDa
[3] = target: zanidatamab precursor (human); assay: SPR; zani precursor captured on immobilised goat anti-human Fc (CM5, Biacore T200), HER2 ECD 3.75-60 nM flowed; single-cycle, 1:1 Langmuir fit; apparent; capture/MW 0.555428881 RU/kDa
[4] = target: zanidatamab precursor (human); assay: SPR; zani precursor captured on immobilised goat anti-human Fc (CM5, Biacore T200), HER2 ECD 3.75-60 nM flowed; single-cycle, 1:1 Langmuir fit; apparent; capture/MW 0.164867939 RU/kDa
[5] = target: zanidatamab precursor (human); assay: SPR; zani precursor captured on immobilised goat anti-human Fc (CM5, Biacore T200), HER2 ECD 3.75-60 nM flowed; single-cycle, 1:1 Langmuir fit; apparent; capture/MW 0.356947091 RU/kDa
[6] = target: zanidatamab precursor (human); assay: SPR; zani precursor captured on immobilised goat anti-human Fc (CM5, Biacore T200), HER2 ECD 3.75-60 nM flowed; single-cycle, 1:1 Langmuir fit; apparent; capture/MW 1.267722403 RU/kDa
[7] = target: zanidatamab (human); assay: SPR; zani captured on immobilised goat anti-human Fc (CM5, Biacore T200), HER2 ECD 3.75-60 nM flowed; single-cycle, 1:1 Langmuir fit; apparent; capture/MW 0.856252506 RU/kDa
[8] = target: zanidatamab precursor (human); assay: SPR; zani precursor captured on immobilised goat anti-human Fc (CM5, Biacore T200), HER2 ECD 3.75-60 nM flowed; single-cycle, 1:1 Langmuir fit; apparent; capture/MW 1.970411967 RU/kDa
[9] = target: zanidatamab (human); assay: SPR; zani captured on immobilised goat anti-human Fc (CM5, Biacore T200), HER2 ECD 3.75-60 nM flowed; single-cycle, 1:1 Langmuir fit; apparent; capture/MW 0.793775709 RU/kDa
[10] = target: zanidatamab precursor (human); assay: SPR; zani precursor captured on immobilised goat anti-human Fc (CM5, Biacore T200), HER2 ECD 3.75-60 nM flowed; single-cycle, 1:1 Langmuir fit; apparent; capture/MW 4.911623982 RU/kDa
[11] = target: zanidatamab (human); assay: SPR; zani captured on immobilised goat anti-human Fc (CM5, Biacore T200), HER2 ECD 3.75-60 nM flowed; single-cycle, 1:1 Langmuir fit; apparent; capture/MW 2.37652122 RU/kDa
[12] = target: zanidatamab precursor (human); assay: SPR; zani precursor captured on immobilised goat anti-human Fc (CM5, Biacore T200), HER2 ECD 3.75-60 nM flowed; single-cycle, 1:1 Langmuir fit; apparent; capture/MW 0.365750719 RU/kDa
[13] = target: zanidatamab (human); assay: SPR; zani captured on immobilised goat anti-human Fc (CM5, Biacore T200), HER2 ECD 3.75-60 nM flowed; single-cycle, 1:1 Langmuir fit; apparent; capture/MW 1.217496547 RU/kDa
[14] = target: zanidatamab precursor (human); assay: SPR; zani precursor captured on immobilised goat anti-human Fc (CM5, Biacore T200), HER2 ECD 3.75-60 nM flowed; single-cycle, 1:1 Langmuir fit; apparent; capture/MW 0.083234299 RU/kDa
[15] = target: Zanidatamab (human); assay: AUC; sedimentation velocity, HER2 ECD and antibody equimolar (1x), 1 mg/mL total protein in DPBS, 20 °C, c(s) model
[16] = target: zanidatamab precursor (human); assay: SPR; zani precursor captured on immobilised goat anti-human Fc (CM5, Biacore T200), HER2 ECD 3.75-60 nM flowed; single-cycle, 1:1 Langmuir fit; apparent; capture/MW 3.817573146 RU/kDa
[17] = target: zanidatamab (human); assay: SPR; zani captured on immobilised goat anti-human Fc (CM5, Biacore T200), HER2 ECD 3.75-60 nM flowed; single-cycle, 1:1 Langmuir fit; apparent; capture/MW 0.273135738 RU/kDa
[18] = target: zanidatamab precursor (human); assay: SPR; zani precursor captured on immobilised goat anti-human Fc (CM5, Biacore T200), HER2 ECD 3.75-60 nM flowed; single-cycle, 1:1 Langmuir fit; apparent; capture/MW 0.571435477 RU/kDa
[19] = target: zanidatamab precursor (human); assay: SPR; zani precursor captured on immobilised goat anti-human Fc (CM5, Biacore T200), HER2 ECD 3.75-60 nM flowed; single-cycle, 1:1 Langmuir fit; apparent; capture/MW 2.11927331 RU/kDa
[20] = target: zanidatamab precursor (human); assay: SPR; zani precursor captured on immobilised goat anti-human Fc (CM5, Biacore T200), HER2 ECD 3.75-60 nM flowed; single-cycle, 1:1 Langmuir fit; apparent; capture/MW 2.00002417 RU/kDa
[21] = target: zanidatamab precursor (human); assay: SPR; zani precursor captured on immobilised goat anti-human Fc (CM5, Biacore T200), HER2 ECD 3.75-60 nM flowed; single-cycle, 1:1 Langmuir fit; apparent; capture/MW 0.423374464 RU/kDa
[22] = target: zanidatamab (human); assay: SPR; zani captured on immobilised goat anti-human Fc (CM5, Biacore T200), HER2 ECD 3.75-60 nM flowed; single-cycle, 1:1 Langmuir fit; apparent; capture/MW 0.62396698 RU/kDa
[23] = target: zanidatamab precursor (human); assay: SPR; zani precursor captured on immobilised goat anti-human Fc (CM5, Biacore T200), HER2 ECD 3.75-60 nM flowed; single-cycle, 1:1 Langmuir fit; apparent; capture/MW 1.154875901 RU/kDa
[24] = target: zanidatamab precursor (human); assay: SPR; zani precursor captured on immobilised goat anti-human Fc (CM5, Biacore T200), HER2 ECD 3.75-60 nM flowed; single-cycle, 1:1 Langmuir fit; apparent; capture/MW 2.899594865 RU/kDa
[25] = target: zanidatamab precursor (human); assay: SPR; zani precursor captured on immobilised goat anti-human Fc (CM5, Biacore T200), HER2 ECD 3.75-60 nM flowed; single-cycle, 1:1 Langmuir fit; apparent; capture/MW 4.096087916 RU/kDa
[26] = target: zanidatamab precursor (human); assay: SPR; zani precursor captured on immobilised goat anti-human Fc (CM5, Biacore T200), HER2 ECD 3.75-60 nM flowed; single-cycle, 1:1 Langmuir fit; apparent; capture/MW 2.483423369 RU/kDa
[27] = target: zanidatamab (human); assay: SPR; zani captured on immobilised goat anti-human Fc (CM5, Biacore T200), HER2 ECD 3.75-60 nM flowed; single-cycle, 1:1 Langmuir fit; apparent; capture/MW 1.306405834 RU/kDa
[28] = target: zanidatamab precursor (human); assay: SPR; zani precursor captured on immobilised goat anti-human Fc (CM5, Biacore T200), HER2 ECD 3.75-60 nM flowed; single-cycle, 1:1 Langmuir fit; apparent; capture/MW 0.703489894 RU/kDa
[29] = target: Zanidatamab (human); assay: SPR; Biacore T200; goat anti-human Fc polyclonal Ab amine-coupled to about 2000 RU on a CM5 chip captures the antibody; increasing concentrations of HER2 ECD injected; single-cycle kinetics, 1:1 binding model; KD of zanidatamab called apparent
[30] = target: zanidatamab precursor (human); assay: SPR; zani precursor captured on immobilised goat anti-human Fc (CM5, Biacore T200), HER2 ECD 3.75-60 nM flowed; single-cycle, 1:1 Langmuir fit; apparent; capture/MW 1.008415548 RU/kDa
[31] = target: zanidatamab precursor (human); assay: SPR; zani precursor captured on immobilised goat anti-human Fc (CM5, Biacore T200), HER2 ECD 3.75-60 nM flowed; single-cycle, 1:1 Langmuir fit; apparent; capture/MW 3.104479294 RU/kDa
[32] = target: zanidatamab (human); assay: SPR; zani captured on immobilised goat anti-human Fc (CM5, Biacore T200), HER2 ECD 3.75-60 nM flowed; single-cycle, 1:1 Langmuir fit; apparent; capture/MW 0.484595665 RU/kDa
[33] = target: zanidatamab precursor (human); assay: SPR; zani precursor captured on immobilised goat anti-human Fc (CM5, Biacore T200), HER2 ECD 3.75-60 nM flowed; single-cycle, 1:1 Langmuir fit; apparent; capture/MW 0.790725842 RU/kDa
[34] = target: zanidatamab precursor (human); assay: SPR; zani precursor captured on immobilised goat anti-human Fc (CM5, Biacore T200), HER2 ECD 3.75-60 nM flowed; single-cycle, 1:1 Langmuir fit; apparent; capture/MW 4.555477221 RU/kDa
[35] = target: T1, Recombinant human HER2 ECD (Homo sapiens, UniProt P04626); assay: SPR; Biacore T200; goat anti-human Fc polyclonal Ab amine-coupled to about 2000 RU on a CM5 chip captures the antibody; increasing concentrations of HER2 ECD injected; single-cycle kinetics, 1:1 binding model; KD of zanidatamab called apparent; conditions: both partners purified
T1 construct: human epidermal growth factor receptor 2 (HER2), extracellular domain, recombinant; printed mass 72 kDa; The supplier is named for the SPR only; source: bought: Acro Inc

Kd [1]: 0.0989 nM | Kd [2]: 0.663 nM | Kd [3]: 0.679 nM | Kd [4]: 0.879 nM | Kd [5]: 0.927 nM | Kd [6]: 0.654 nM | Kd [7]: 0.174 nM | Kd [8]: 0.46 nM | Kd [9]: 0.0997 nM | Kd [10]: 0.0358 nM | Kd [11]: 0.0801 nM | Kd [12]: 1.12 nM | Kd [13]: 0.0932 nM | Kd [14]: 0.89 nM | percent of the total peak area in multimeric complexes [15]: 95% | Kd [16]: 0.136 nM | Kd [17]: 0.149 nM | Kd [18]: 0.687 nM | Kd [19]: 0.475 nM | Kd [20]: 0.152 nM | Kd [21]: 2.02 nM | Kd [22]: 0.169 nM | Kd [23]: 0.743 nM | Kd [24]: 0.318 nM | Kd [25]: 0.119 nM | Kd [26]: 0.0931 nM | Kd [27]: 0.0913 nM | Kd [28]: 0.992 nM | Kd [29]: 0.74 nM | Kd [30]: 0.49 nM | Kd [31]: 0.311 nM | Kd [32]: 0.175 nM | Kd [33]: 0.992 nM | Kd [34]: 0.0468 nM
Molecule: Recombinant human HER2 ECD (from UniProt P04626 23-652) (domain or fragment)

Kd [35]: 1.7 nM
B1: Monovalent one-armed Ab (OAA) with the affinity-improved anti-HER2-ECD2 Fab (antibody, V domains shown)
VH: EVQLVESGGGLVQPGGSLRLSCAASGFTFADYTMDWVRQAPGKGLEWVGDVNPNSGGSIYNQRFKGRFTFSVDRSKNTLYLQMNSLRAEDTAVYYCARNLGPSFYFDYWGQGTLVTVSS
VL: DIQMTQSPSSLSASVGDRVTITCKASQDVSIGVAWYQQKPGKAPKLLIYSASYRYTGVPSRFSGSGSGTDFTLTISSLQPEDFATYYCQQYYIYPATFGQGTKVEIK
notes: as the light chain of m3; also called one variant; copies: + +

Reference: paper PMC10011572 (Nature Communications, 2023)
